Experiments:
P03420 = assay: SEC; Superdex 200 Increase 10/300 GL, antigens (40 ug) in PBS; percent of total antigen in aggregate, trimer and monomer fractions by area under the curve
[1] = biological target: RSV F DsCav1 (pre-fusion stabilised comparator with foldon) (respiratory syncytial virus (RSV) | bacteriophage T4) (UniProt P03420); assay: as above
[2] = as above
[3] = biological target: hMPV F DsCavEs2 (pre-fusion stabilised comparator with foldon) (human metapneumovirus (hMPV) | bacteriophage T4); assay: as above
[4] = biological target: hMPV Fsol (non-stabilised soluble hMPV F, post-fusion control) (human metapneumovirus (hMPV)); assay: as above

RSV F DsCav1 (pre-fusion stabilised comparator with foldon)
percent trimer (SEC, area under curve) (P03420): RSV DSCav1, 69% trimer

RSV F DsCav1 (pre-fusion stabilised comparator with foldon) (from UniProt P03420 26-524)
stoichiometry N [1]: 3

hMPV F DsCavEs2 (pre-fusion stabilised comparator with foldon)
percent trimer (SEC, area under curve) [2]: hMPV DSCavEs2, 54% trimer | stoichiometry N [3]: 3

hMPV Fsol (non-stabilised soluble hMPV F, post-fusion control)
percent trimer (SEC, area under curve) [2]: hMPV Fsol, 25% aggregate, 19% trimer, 56% monomer

hMPV Fsol (non-stabilised soluble hMPV F, post-fusion control) (domain or fragment)
stoichiometry N [4]: 3

Source: publication PMC12270161
